For data set [1], the target named is T1, C-terminal, HMK-tagged P167L Rho, 32P-labelled (UniProt P0AG30 1-419, P167L, radiolabelled with [γ-32P]ATP in the HMK tag using protein kinase A).
T1 construct: Transcription termination factor Rho; also called P^32-labelled HMK-tagged P167L Rho; end-labelled Rho; not shown: HMK (heart muscle protein kinase) tag, C-terminal, kept
The experiment in a line: Fe-BABE hydroxyl-radical protein cleavage; 0.2 µM 32P-labelled HMK-tagged P167L Rho and 2.5 µM Fe-BABE-labelled Psu, 37°C 30 min, 50 mM MOPS, 120 mM NaCl, 0.1 mM EDTA, 10 mM MgCl2, 10% glycerol, pH 8.0, 1 mM ATP; cleavage started with 4 mM ascorbate and hydrogen peroxide; SDS-PAGE autoradiogram. Particulars: both partners purified.

Data set [2] addresses T1, C-terminal, HMK-tagged P167L Rho, …. The experiment in a line: limited trypsin digestion (protein foot-printing); 0.2 µM 32P-labelled HMK-tagged P167L Rho with 2.5 µM WT Psu in transcription buffer with 1 mM ATP, 10 min 37°C, then increasing trypsin for 1 min; gradient SDS-PAGE autoradiogram. Conditions: both partners purified.
The target in data set [3] is T2, TMRA-labelled S153C Rho (on P167L Rho) (UniProt P0AG30 1-419, P167L | C202S | S153C, tetramethylrhodamine-5-maleimide (TMRA) on the single cysteine at 153).
T2 construct: Transcription termination factor Rho; natural cysteine removed, made on P167L Rho; also called TMRA–Rho S153C; source: labelled with tetramethylrhodamine-5-maleimide, excess dye removed
The experiment in a line: FRET or BRET; fluorescein-labelled Psu (50 nM) and TMRA-labelled Rho (100 nM), 25 mM Tris-HCl pH 8.0, 50 mM KCl, 5 mM MgCl2, 25°C, 15 min; excitation 470 nm, emission enhancement at 570 nm. Conditions: both partners purified. (In general: BRET reads energy transfer from a luciferase to a nearby fluorophore.)

In data set [4] the target is T3, TMRA-labelled S346C Rho (on P167L Rho) (UniProt P0AG30 1-419, P167L | C202S | S346C, tetramethylrhodamine-5-maleimide (TMRA) on the single cysteine at 346).
T3 construct: Transcription termination factor Rho; natural cysteine removed, made on P167L Rho; also called TMRA–Rho S346C; source: labelled with tetramethylrhodamine-5-maleimide, excess dye removed
The data set is described as above. Particulars: both partners purified.

Data set [5] addresses T4, Single Cys derivative S153C of P167L Rho (UniProt P0AG30 1-419, P167L | C202S | S153C).
T4 construct: Transcription termination factor Rho; natural cysteine removed, made on P167L Rho; also called S153C Rho
The experiment in a line: cross-linking; sulpho-LC-SPDP (cysteine to amine): SPDP-derivatized 32P-labelled Psu (~0.5 µM) with single-Cys Rho derivatives (~2 µM), 10 min 25°C, phosphate buffer (100 mM NaH2PO4, 150 mM NaCl, 1 mM EDTA, pH 7.5); non-reducing 12% PAGE; species sensitive to DTT. Particulars: both partners purified.

Data set [6] deals with T5, Single Cys derivative S346C of P167L Rho (UniProt P0AG30 1-419, P167L | C202S | S346C).
T5 construct: Transcription termination factor Rho; natural cysteine removed, made on P167L Rho; also called S346C Rho
The description is as above. Conditions: both partners purified.

Data set [7] concerns the molecule itself. Described as above.

T3 sequence (P0AG30 whole entry P167L/C202S/S346C): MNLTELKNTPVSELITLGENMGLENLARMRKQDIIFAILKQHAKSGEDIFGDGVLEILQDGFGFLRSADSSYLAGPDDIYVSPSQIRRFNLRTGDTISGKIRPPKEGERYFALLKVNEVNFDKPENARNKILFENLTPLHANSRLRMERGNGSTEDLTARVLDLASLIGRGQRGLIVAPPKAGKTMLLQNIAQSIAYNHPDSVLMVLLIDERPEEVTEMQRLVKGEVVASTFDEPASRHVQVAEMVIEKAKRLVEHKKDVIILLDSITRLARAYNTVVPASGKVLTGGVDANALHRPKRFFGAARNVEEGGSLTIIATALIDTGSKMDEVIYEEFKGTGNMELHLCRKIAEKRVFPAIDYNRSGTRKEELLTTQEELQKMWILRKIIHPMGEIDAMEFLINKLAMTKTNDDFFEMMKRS
T1 sequence (P0AG30 whole entry P167L): as the sequence (P0AG30 whole entry P167L/C202S/S346C) above, with S202C, C346S counted along it
T2 sequence (P0AG30 whole entry S153C/P167L/C202S): as the sequence (P0AG30 whole entry P167L/C202S/S346C) above, with S153C, C346S counted along it
T5 sequence (P0AG30 whole entry P167L/C202S/S346C): as the sequence (P0AG30 whole entry P167L/C202S/S346C) above
T4 sequence (P0AG30 whole entry S153C/P167L/C202S): as the sequence (P0AG30 whole entry P167L/C202S/S346C) above, with S153C, C346S counted along it

B1: Fe-BABE-conjugated Psu S181C (natural protein, bacteriophage P4)
chain: MESTALQQAFDTSQNNKAAWLQRKNELAAAEQEYLRLLSGEGRNVSRLDELRNIIEVRKWQVNQAAGRYIRSHEAVQHISIRDRLNDFMQQHGTALAAALAPELMGYSELTAIARNSAIQRATDALREALLSWLAKGEKINYSAQDSDILTTIGFRPDVASVDDSREKFTPAQNMIFSRKCAQLASRQSV
modifications: Fe-BABE conjugated to the single cysteine at 181
notes: Psu (polarity suppressor), capsid-decoration protein of bacteriophage P4; natural cysteines removed; also called Fe-BABE-labelled Psu; source: conjugated with 5-fold molar excess of Fe-BABE (Pierce), desalted
Consider B1, for which the binding result in data set [1] is “binds”.

B2: WT Psu (in vitro assays) (natural protein, bacteriophage P4)
chain: MESTALQQAFDTCQNNKAAWLQRKNELAAAEQEYLRLLSGEGRNVSRLDELRNIIEVRKWQVNQAAGRYIRSHEAVQHISIRDRLNDFMQQHGTALAAALAPELMGYSELTAIARNCAIQRATDALREALLSWLAKGEKINYSAQDSDILTTIGFRPDVASVDDSREKFTPAQNMIFSRKSAQLASRQSV
notes: Psu (polarity suppressor), 21 kDa capsid-decoration protein of bacteriophage P4; purification may stand in the Supplementary Methods
As to B2, the binding result in data set [2] is “binds”.

B3: Fluorescein-labelled Psu S181C (natural protein, bacteriophage P4)
chain: MESTALQQAFDTSQNNKAAWLQRKNELAAAEQEYLRLLSGEGRNVSRLDELRNIIEVRKWQVNQAAGRYIRSHEAVQHISIRDRLNDFMQQHGTALAAALAPELMGYSELTAIARNSAIQRATDALREALLSWLAKGEKINYSAQDSDILTTIGFRPDVASVDDSREKFTPAQNMIFSRKCAQLASRQSV
modifications: fluorescein-5-maleimide on the single cysteine at 181
notes: Psu (polarity suppressor), capsid-decoration protein of bacteriophage P4; natural cysteines removed; also called FL-labelled S181C Psu; source: labelled with fluorescein-5-maleimide, excess dye removed
On to B3, for which the binding result in data set [3] and in data set [4] was “binds” in each case.

B4: SPDP-derivatized, HMK-tagged non-cysteine derivative of Psu (C13S and C117S) (natural protein, bacteriophage P4)
chain: MESTALQQAFDTSQNNKAAWLQRKNELAAAEQEYLRLLSGEGRNVSRLDELRNIIEVRKWQVNQAAGRYIRSHEAVQHISIRDRLNDFMQQHGTALAAALAPELMGYSELTAIARNSAIQRATDALREALLSWLAKGEKINYSAQDSDILTTIGFRPDVASVDDSREKFTPAQNMIFSRKSAQLASRQSV
modifications: 32P end-label in the HMK tag; primary amines (lysines) labelled with sulpho-LC-SPDP
notes: Psu (polarity suppressor), capsid-decoration protein of bacteriophage P4; natural cysteines removed; also called SPDP-labelled Psu; radiolabelled Psu; source: labelled with sulpho-LC-SPDP (Pierce), desalted
The stoichiometry N is a count of units in the complex or per binding partner. With B4, the binding result in data set [5] and in data set [6] was “binds” throughout. The “stoichiometry N” value in data set [7] was 2.

B5: Fluorescein-labelled Psu S161C (natural protein, bacteriophage P4)
chain: MESTALQQAFDTSQNNKAAWLQRKNELAAAEQEYLRLLSGEGRNVSRLDELRNIIEVRKWQVNQAAGRYIRSHEAVQHISIRDRLNDFMQQHGTALAAALAPELMGYSELTAIARNSAIQRATDALREALLSWLAKGEKINYSAQDSDILTTIGFRPDVACVDDSREKFTPAQNMIFSRKSAQLASRQSV
modifications: fluorescein-5-maleimide on the single cysteine at 161
notes: Psu (polarity suppressor), capsid-decoration protein of bacteriophage P4; natural cysteines removed; also called FL-labelled S161C Psu; source: labelled with fluorescein-5-maleimide, excess dye removed
For B5, the binding result in data set [3] and in data set [4] was “binds” in each case.

For the origin of these results see paper PMC3737525, “Structural and mechanistic basis of anti-termination of Rho-dependent transcription termination by bacteriophage P4 capsid protein Psu” (Nucleic Acids Research, 2013).
